In publication PMC8600398:
pKd: −log10 of the molar value.

Tests used:
[1] = target: T1, 6His-CRP (cAMP receptor protein) (Escherichia coli (K-12 MG1655?)) (UniProt P0ACJ8); experiment: EMSA; conditions: 10 mM Tris-HCl pH 7.5, 50 mM NaCl, 5 mM MgSO4, 1 mM DTT, 1 mg/ml BSA, 200 uM cAMP, 10% glycerol, 12 ug/ml poly(dI-dC), 5 nM DNA, 37 C 15 min; 5% PAGE 0.25X TBE …
T1 sequence: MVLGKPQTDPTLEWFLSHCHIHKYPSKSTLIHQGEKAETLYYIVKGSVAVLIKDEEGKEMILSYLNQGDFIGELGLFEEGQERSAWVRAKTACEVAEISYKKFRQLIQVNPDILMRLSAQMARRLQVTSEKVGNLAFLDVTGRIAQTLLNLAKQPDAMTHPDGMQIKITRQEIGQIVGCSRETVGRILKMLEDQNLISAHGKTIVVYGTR

[2] = test system: 6His-CRP (cAMP receptor protein) (Escherichia coli (K-12 MG1655?)); experiment: EMSA; conditions: 10 mM Tris-HCl pH 7.5, 50 mM NaCl, 5 mM MgSO4, 1 mM DTT, 1 mg/ml BSA, 200 uM cAMP, 10% glycerol, 12 ug/ml poly(dI-dC), 5 nM DNA, 37 C 15 min; 5% PAGE 0.25X TBE …

Substance	binding [1]	pKd [2]
GCCTACCGCATCCGCTTGCGTATCGACGGCGTATTGCATCCTTTACCGGATGTTTCACCGGATGCCGGAGTCGCATTAACCGCCAGATTAAAAGTGCTGGGAAACCTGG (double strand)	no binding	–
ytfK promoter region -515/+3	–	7.60
